Target: biotinylated lysocin E derivative, natural type (biotin (position not given); fatty acid chain moiety)
Assay: BLI

B1: recombinant human apolipoprotein A-I ∆NM variant (domain or fragment)
chain: PVTQEFWDNLEKETEGLRQEMSKDLEEVKAKVQPYLDDFQKKWQEEMELYRQKVEPLRAELQEGARQKLHELQEKLSPLGTHLAPYSDELRQRLAARLEALKENGGARLAEYHAKATEHLSTLSEKAKPALEDLRQGLLPVLESFKVSFLSALEEYTKKLNTQ
In the case of B1, the Kd is reported as 5.6 µM.

Reference: PMC8568920 (2021)
